T1: CD73 on the surface of A375 cells (UniProt P21589 27-549, limits assumed)
T1 construct: whole, on cells; also called cell surface CD73
T1 sequence (looked up): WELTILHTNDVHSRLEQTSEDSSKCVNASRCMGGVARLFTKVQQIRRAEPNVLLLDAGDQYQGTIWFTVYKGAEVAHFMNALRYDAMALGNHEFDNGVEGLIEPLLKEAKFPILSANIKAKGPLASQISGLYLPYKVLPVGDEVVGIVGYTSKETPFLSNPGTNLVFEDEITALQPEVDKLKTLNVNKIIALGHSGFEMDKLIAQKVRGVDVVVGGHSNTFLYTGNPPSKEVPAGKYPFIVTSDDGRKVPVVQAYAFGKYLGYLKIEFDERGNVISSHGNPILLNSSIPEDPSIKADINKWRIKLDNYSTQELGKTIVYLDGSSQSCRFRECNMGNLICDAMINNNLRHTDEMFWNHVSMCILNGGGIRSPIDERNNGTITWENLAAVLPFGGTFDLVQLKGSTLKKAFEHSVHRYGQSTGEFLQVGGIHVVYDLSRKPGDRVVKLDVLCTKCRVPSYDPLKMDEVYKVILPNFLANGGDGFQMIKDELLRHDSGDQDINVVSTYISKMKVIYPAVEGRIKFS

T2: human CD73 protein (soluble) (human, UniProt P21589 27-549, limits assumed)
T2 construct: its species is not restated there; also called soluble CD73; 5'-nucleotidase
T2 sequence (looked up): T1 sequence (looked up)

B1: H12(PDL1) (monospecific anti-PD-L1 antibody with the H12 VH and H12 VL) (antibody, V domains shown)
VH: EVQLVESGGGLVQPGGSLRLSCAASGFTFSSYDMSWVRQAPGKSLEWVATISDAGGYIYYRDSVKGRFTISRDNAKNSLYLQMNSLRDEDTAVYICARELPWRYALDYWGQGTTVTVSS
VL: DIQMTQSPSSLSASVGDRVTITCKASQDVTPAVAWYQQKPGKAPKLLIYSTSSRYTGVPSRFSGSGSGTDFTFTISSLQPEDIATYYCQQHYTTPLTFGQGTKLEIK
notes: it was detected with anti-human Fc; also called PD-L1 antibody H12
B2: hu309 (monospecific anti-CD73 antibody with the 309 VH and 309 VL) (antibody, V domains shown)
VH: EVQLQESGPGLVKPSETLSLTCAVSGYSITSGYYWNWIRQPPGKKLEWMGYINYGGSNGYNPSLKSRITISRDTSKNQFSLKLSSVTAADTAVYYCARDYDAYYEALDDWGQGTTVTVSS
VL: EIVLSQSPATLSLSPGERATLSCRASSRVNYMHWYQQKPGQSPRPWISATSNLASGVPARFSGSGSGTSYTLTISSLEPEDFAVYYCQQWSSNPPTFGGGTKVEIK
notes: it was detected with anti-human Fc

Experiments:
[1] = molecular target: T3, human PD-L1 on PD-L1 positive Raji cells (human, UniProt Q9NZQ7 19-290); assay: flow cytometry on PD-L1 positive Raji cells, AF633 anti-human Fc detection
T3 construct: whole, on cells; also called cell surface PD-L1; PD-L1+ cells
T3 sequence (Q9NZQ7 19-290): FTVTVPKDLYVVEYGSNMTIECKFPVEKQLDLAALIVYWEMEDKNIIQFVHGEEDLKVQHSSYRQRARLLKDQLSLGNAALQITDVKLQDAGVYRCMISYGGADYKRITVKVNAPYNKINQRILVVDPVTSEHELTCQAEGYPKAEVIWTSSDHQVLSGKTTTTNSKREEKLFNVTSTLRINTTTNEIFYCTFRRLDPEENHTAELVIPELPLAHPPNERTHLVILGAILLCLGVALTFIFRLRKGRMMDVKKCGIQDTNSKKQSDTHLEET

[2] = molecular target: T4, human PD-L1 protein (soluble) (human, UniProt Q9NZQ7 19-238, limits assumed); assay: ELISA, human PD-L1 coated on the plate, anti-human Fc HRP detection
T4 construct: also called soluble PD-L1
T4 sequence (Q9NZQ7 19-238 limits assumed): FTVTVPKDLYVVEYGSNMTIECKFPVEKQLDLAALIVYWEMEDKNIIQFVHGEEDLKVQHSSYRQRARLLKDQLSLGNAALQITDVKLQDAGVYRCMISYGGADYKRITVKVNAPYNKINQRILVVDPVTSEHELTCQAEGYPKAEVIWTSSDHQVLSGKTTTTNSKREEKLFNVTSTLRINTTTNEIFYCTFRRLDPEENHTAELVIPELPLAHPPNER

[3] = molecular target: T1, CD73 on the surface of A375 cells; assay: flow cytometry on A375 cells, AF633 anti-human Fc detection
Description: A375 cells that constitutively expressed CD73 on the surface were used in this example. 1×10⁵ A375 cells/well were suspended in FACS buffer. Antibodies diluted from 10 nM by 2-fold, 100 μl into each well, 4° C. for 30 min. The samples were washed with FACS buffer for 1×. AF633-anti hu Fc was added for binding for 30 min at 4° C., and washed with FACS buffer for 1×.

[4] = molecular target: T2, human CD73 protein (soluble); assay: ELISA, human CD73 coated on the plate, anti-human Fc HRP detection
Description: Plated were coated with 100 μl of 1 μg/ml human CD73 protein overnight. The samples were blocked with 1% BSA in PBST for 1 hr, washed with PBST 3×. […] Binding with anti-hu Fc HRP was at 1:10000 in PBST, RT for 30 min, wash with PBST 3×. 100 μl of TMB and 100 μl of HCl were then added.

Row | Binder | binding result [1] | binding result [2] | binding result [3] | binding result [4]
1 | B1 | binds | binds |  | 
2 | B2 |  |  | binds | binds
